Data on two molecules can be found in PMC2824750.

For assay [1], the target named is in vitro translated 35S-labelled Ehmeth, full length (TNT-Ehmeth) (E. histolytica).
Assay [2] concerns the target calmodulin, histidine, hemagglutin (CHH)-tagged-Ehmeth (E. histolytica). Description: co-IP; anti-HA immunoprecipitation from nuclear lysate of E. histolytica trophozoites expressing a CHH-tagged protein, HNTG buffer (20 mM Hepes pH 7.5, 150 mM NaCl, 0.1% Triton, 10% glycerol), 4°C; blot with anti-enolase; trophozoites grown in regular medium or starved of glucose for 12 hours.

B1: GST-Ehenolase (enzyme)
chain: MSIQKVHAREILDSRGNPTIEVEITTGKGMFRSCVPSGASTGVHEAVELRDGDKKRYGGKGVLKAVENVNTIIGPALLGKNVLNQAELDEMMIKLDGTNNKGKLGANAILGCSMSICRAAAAEKGLPLYKYLAELTGHKEMTMPVPCFNVINGGAHAGNALAMQEFMICPTGATNFHEALRMAAETYQCLKVVIKAKYGQDATNVGDEGGFAPNVSGAREALDLLVEAIAKAGYTGKIEIAMDCAASEFYNEETKKYDLGKKIPADKKDPSLVKDVDGLIAEYVDYGKHYPIASIEDPFAEDDWAAWNKFTVEHGNFQIVGDDLLVTNPARVQMAMDKNACNSVLIKVNQIGTLTETFKTIKMAQEKGWGVMASHRSGETEDTFIADLVVGLNCKQIKTGAPCRSERLCKYNQLMRIEEELGNIPYAGKNWRNSTA
Consider B1, for which the inhibition of the tRNA^Asp methyltransferase activity of recombinant Ehmeth (0.4 nmol) by GST-Enolase (2 nmol) in assay [1] is 60 % inhibition.

B2: endogenous enolase of E. histolytica trophozoites (enzyme)
chain: B1 chain
Consider B2, for which the fold more complex after glucose starvation than in regular medium in assay [2] stood at 3 fold.
